Data on 94 variants can be found in the supplement of paper PMC10567573.

The labels stand for the following.
B1: KRT71 (parent)
chain: ELRNVQDVVEDYKKRYEEEINKRT
B2: RAB11A (parent)
chain: AVPTDEARAFAEKNGLSFIETSAL
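Note: lentivirally expressed fusions sorted by FACS into six bins by GFP to DsRed ratio, PSI derived from sequencing read proportions per bin multiplied by bin number.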

Variants of B1 are the subject of the first data set. Nature of the data set: protein stability index of a GFP-peptide fusion (GPS, HEK-293T) (PSI 1-6); higher = more stable. As to conditions: c terminus: a fixed tail appended.
For the variant ELRNVQDVVEDYKKRYEEEIDKRT, the protein stability index came out at 3.8. Regarding ELRNVQDVVEDYKKRYEEEINKRG, the protein stability index worked out at 3.94.

As to ELRNVQDVVEDYKKRYEEEINKRK, the protein stability index came out at 4.43. With ELRNVQDVVEDYKKRYEEEINKRW, the protein stability index was determined as 3.62. Take ELRNVQDVVEDYKKRYEEEINKRS: the protein stability index came out at 3.4. Take ELRNVQDVVEDYKKRYEEEINKRD: the protein stability index turned out to be 4.64. On the same count and under the same terms, in the case of ELRNVQDVVEDYKKRYEEEINKRE it was 4.57; in that of ELRNVQDVVEDYKKRYEEEINKRQ, 4.56.

On to ELRNVQDVVEDYKKPYEEEINKRT, for which the protein stability index stood at 4.78. For the variant ELRNVQDVVEDYKKCYEEEINKRT, the protein stability index amounted to 4.23.

As to ELRNVQDVVEDYKKEYEEEINKRT, the protein stability index turned out to be 3.49.

Take ELRNVQDVVEDYKKSYEEEINKRT: the protein stability index came to 3.63. On the same count and under the same terms, then ELRNVQDVVEDYKKYYEEEINKRT, with 3.43; and ELRNVQDVVEDYKKNYEEEINKRT, with 3.48. ELRNVQDVVEDYKKQYEEEINKRT: the protein stability index amounted to 4.26. For the variant ELRNVQDVVCDYKKRYEEEINKRT, the protein stability index turned out to be 3.62. Take ELRNVQDVVPDYKKRYEEEINKRT: the protein stability index stood at 3.41. On the same count and under the same terms, then ELRNVQDVVHDYKKRYEEEINKRT, with 3.71. As for ELRNVQDVVYDYKKRYEEEINKRT, the protein stability index is 3.26.

In the case of ELRNVQDVVFDYKKRYEEEINKRT, the protein stability index worked out at 4.36. Take ELRNVQDVVSDYKKRYEEEINKRT: the protein stability index was determined as 3.65. Turning to ELRNVQDVVTDYKKRYEEEINKRT, the protein stability index was found to be 4.45. Same read-out and setting: in the case of ELRNVQDVVKDYKKRYEEEINKRT it was 3.14. As to ELRNVQDVVEDYKKRYEEEVNKRT, the protein stability index came out at 4.2. With ELRNVQDVVEDYKKRYEEEMNKRT, the protein stability index was determined as 4.12.

Take ELRNVQDVVEDYKKRYEEEQNKRT: the protein stability index was found to be 3.74.

With ELRNVQDVVEDYKKRYEEEENKRT, the protein stability index stood at 3.6. For ELRNVQDVVEDYKKRYEEEANKRT, the protein stability index stood at 4.88. Regarding ELRNVQDVVEDYKKRYEEELNKRT, the protein stability index is 4.32.

Take ELRNPQDVVEDYKKRYEEEINKRT: the protein stability index came to 5.56. For ELRNFQDVVEDYKKRYEEEINKRT, the protein stability index stood at 3.38. Consider ELRNDQDVVEDYKKRYEEEINKRT, for which the protein stability index is 4.58. Take ELRNHQDVVEDYKKRYEEEINKRT: the protein stability index worked out at 4.37. As to ELRNKQDVVEDYKKRYEEEINKRT, the protein stability index amounted to 3.75. On to ELRNCQDVVEDYKKRYEEEINKRT, for which the protein stability index is 3.98. On to ELRNRQDVVEDYKKRYEEEINKRT, for which the protein stability index is 3.22. For the variant ELRNNQDVVEDYKKRYEEEINKRT, the protein stability index amounted to 3.59.

On to ELRNVQDVVEDYKKRYEEEINKIT, for which the protein stability index was found to be 3.72. For ELRNVQDVVEDYKKRYEEEINKGT, the protein stability index is 4.1. Turning to ELRNVQDVVEDYKKRYEEEINKST, the protein stability index came out at 4.27. As for ELRNVQDVVEDYKKRYEEEINKFT, the protein stability index worked out at 3.71. On the same count and under the same terms, in the case of ELRNVQDVVEDYKKRYEEEINKNT it was 4.11. Regarding ELRNVQDVVEDYKERYEEEINKRT, the protein stability index was determined as 4.51. With ELRNVQDVVEDYKNRYEEEINKRT, the protein stability index was found to be 3.58. For the variant ELRNVQDVVEDYKYRYEEEINKRT, the protein stability index was found to be 3.47.

On to ELRNVQDVVEDYKGRYEEEINKRT, for which the protein stability index is 4.76. Same read-out and setting: then ELRNVQDVVEDYKTRYEEEINKRT, with 3.65; and ELRNVQDVVEDYKLRYEEEINKRT, with 2.97; and ELRNVQDVVEDIKKRYEEEINKRT, with 3.13. Consider ELRNVQDVVEDMKKRYEEEINKRT, for which the protein stability index amounted to 4.56.

On to ELRNVQDVVEDHKKRYEEEINKRT, for which the protein stability index stood at 4.09. Regarding ELRNVQDVVEDQKKRYEEEINKRT, the protein stability index was determined as 4.12. Take ELRNVQDVVEDRKKRYEEEINKRT: the protein stability index was 3.66.

As for ELRNVQDVVEDCKKRYEEEINKRT, the protein stability index is 4.07. Turning to ELRNVQDVVEDVKKRYEEEINKRT, the protein stability index worked out at 4.23. Regarding ENRNVQDVVEDYKKRYEEEINKRT, the protein stability index worked out at 5.02. On to EGRNVQDVVEDYKKRYEEEINKRT, for which the protein stability index is 5.65. On to ECRNVQDVVEDYKKRYEEEINKRT, for which the protein stability index is 3.53. On to EPRNVQDVVEDYKKRYEEEINKRT, for which the protein stability index amounted to 4.96. For ELRNVQDWVEDYKKRYEEEINKRT, the protein stability index stood at 3.73. For the variant ELRNVQDGVEDYKKRYEEEINKRT, the protein stability index is 3.49. With ELRNVQDFVEDYKKRYEEEINKRT, the protein stability index was 3.97. In the case of ELRNVQDNVEDYKKRYEEEINKRT, the protein stability index came to 3.38. The same measure, in the same setting: then ELRNVQDHVEDYKKRYEEEINKRT, with 2.88. For ELRNVQDLVEDYKKRYEEEINKRT, the protein stability index worked out at 4.3. With ELRNVQDIVEDYKKRYEEEINKRT, the protein stability index is 3.45.

In the case of ELRNVKDVVEDYKKRYEEEINKRT, the protein stability index worked out at 3.75. For ELRNVTDVVEDYKKRYEEEINKRT, the protein stability index was found to be 3.4.

Take ELRNVGDVVEDYKKRYEEEINKRT: the protein stability index amounted to 3.36.

As to ELRNVIDVVEDYKKRYEEEINKRT, the protein stability index amounted to 2.54. Consider ELRNVYDVVEDYKKRYEEEINKRT, for which the protein stability index is 3.18. Still for that read-out and setting: then ELRNVPDVVEDYKKRYEEEINKRT, with 4.41. On the same count and under the same terms, in the case of ELRNVSDVVEDYKKRYEEEINKRT it was 4.01.

In another data set the parent is B2. The data set is described as above. As to conditions: c terminus: a fixed tail appended.
Turning to AVPTDEARAFAEKNGLSFIETSYL, the protein stability index stood at 1.81. In the case of AVPTDEARAFAEKNGLSFIETSWL, the protein stability index came out at 1.55. Still for that read-out and setting: then AVPTDEARAFAEKNGLSFIETSAW, with 2.72; and AVPTDEARAFAEKNGLSFIETSAF, with 2.73; and AVPTDEARAFAEKNGLSFIETSAG, with 5.05. On the same count and under the same terms, in the case of AVPTDEARAFAEKNGLSFIETSAY it was 3.04.

As for AVPTDEARAFAEKNGLSFIETSAE, the protein stability index amounted to 5.03. The same measure, in the same setting: then AVPTDEARAFAEKNGLSFIETSAR, with 2.63; and AVPTDEARAFAEKNGLSFIETSAP, with 4.62. In the case of AVPTDEARAFAEKNGLSFIETSAM, the protein stability index worked out at 3.08. Turning to AVPTDEARAFAEKNGLSFIETSAH, the protein stability index is 4.06. Consider AVPTDEARAFAEKNGLSFIETSAD, for which the protein stability index worked out at 4.79.

Regarding AVPTDEARAFAEKNGLSFIETSAS, the protein stability index stood at 4.39. On to AVPTDEARAFAEKNGLSFIETSAN, for which the protein stability index was 4.47. With AVPTDEARAFAEKNGLSFIETSAI, the protein stability index is 2.34. Turning to AVPTDEARAFAEKNGLSFIETSAC, the protein stability index stood at 3.07. Consider AVPTDEARAFAEKNGLSFIETSAA, for which the protein stability index turned out to be 4. As to AVPTDEARAFAEKNGLSFIETSAV, the protein stability index amounted to 3.31. AVPTDEARAFAEKNGLSFIETSAK: the protein stability index came out at 3.53.

For AVPTDEARAFAEKNGLSFIETSAT, the protein stability index is 3.98.

Turning to AVPTDEARAFAEKNGLSFIETSAQ, the protein stability index came out at 3.47.
